# Experimental data: the supplement of paper PMC9112550, “Optimization of the antimicrobial peptide Bac7 by deep mutational scanning” (BMC Biology, 2022)
# Tested on: Escherichia coli TOP10
# Assay: shrunken log2 fold change of peptide-encoding DNA abundance (4.5 h post-induction vs induction); higher = less antimicrobial activity (less host growth inhibition)
# Details: time post-induction: 4.5 h; library: site-saturation at positions 5, 18, 19, 20
# 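Further: peptides expressed intracellularly from a pBAD plasmid library in pooled LB shake-flask culture, induced with 0.3% L-arabinose, DNA abundance read by NGS, three biological replicates, DESeq2 with apeglm shrinkage.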
row,Sequence,shrunken log2 fold change
1,RRIRQRPPRLPRPRPRPDCFPRP,0.291
2,RRIRGRPPRLPRPRPRPSGMPRP,0.48
3,RRIRNRPPRLPRPRPRPLYRPRP,-0.332
4,RRIRWRPPRLPRPRPRPHAAPRP,0.45
5,RRIRIRPPRLPRPRPRPCRDPRP,-0.132
6,RRIRMRPPRLPRPRPRPPAGPRP,1.5
7,RRIRPRPPRLPRPRPRPDIDPRP,-0.144
8,RRIRFRPPRLPRPRPRPTRCPRP,0.299
9,RRIRKRPPRLPRPRPRPCNKPRP,0.0197
10,RRIRYRPPRLPRPRPRPEAPPRP,-0.0405
11,RRIRLRPPRLPRPRPRPYHNPRP,-0.712
12,RRIRWRPPRLPRPRPRPAMDPRP,0.109
13,RRIRRRPPRLPRPRPRPKFYPRP,-0.102
14,RRIRNRPPRLPRPRPRPDGVPRP,0.221
15,RRIRGRPPRLPRPRPRPEDAPRP,1.65
16,RRIRWRPPRLPRPRPRPLPKPRP,0.12
17,RRIRHRPPRLPRPRPRPLPMPRP,-0.00404
18,RRIRVRPPRLPRPRPRPADSPRP,-0.0859
19,RRIRFRPPRLPRPRPRPTLRPRP,0.0831
20,RRIRIRPPRLPRPRPRPWQKPRP,0.0223
21,RRIRCRPPRLPRPRPRPTHWPRP,0.546

row,Sequence,shrunken log2 fold change
1,RRIRLRPPRLPRPRPRPGPFPRP,0.137
2,RRIRWRPPRLPRPRPRPNCTPRP,0.0251
3,RRIRCRPPRLPRPRPRPRSNPRP,-0.349
4,RRIRGRPPRLPRPRPRPNINPRP,0.337
5,RRIRDRPPRLPRPRPRPCIDPRP,0.0188
6,RRIRERPPRLPRPRPRPSDSPRP,-0.186
7,RRIRNRPPRLPRPRPRPEKKPRP,-0.113
8,RRIRFRPPRLPRPRPRPGILPRP,-0.187
9,RRIRVRPPRLPRPRPRPNQFPRP,-0.349
10,RRIRYRPPRLPRPRPRPVSCPRP,-0.0731
11,RRIRARPPRLPRPRPRPGYFPRP,0.212
12,RRIRYRPPRLPRPRPRPQLWPRP,0.0782
13,RRIRTRPPRLPRPRPRPTPMPRP,0.276
14,RRIRFRPPRLPRPRPRPIWPPRP,0.21
15,RRIRSRPPRLPRPRPRPMQWPRP,-0.145
16,RRIRPRPPRLPRPRPRPKPPPRP,0.538
17,RRIRKRPPRLPRPRPRPHPGPRP,0.293
18,RRIRPRPPRLPRPRPRPEVYPRP,0.0493
19,RRIRHRPPRLPRPRPRPMRKPRP,0.0179
20,RRIRLRPPRLPRPRPRPVKVPRP,-0.0103
21,RRIRPRPPRLPRPRPRPCIIPRP,-0.438

row,Sequence,shrunken log2 fold change
1,RRIRTRPPRLPRPRPRPNYRPRP,-0.0168
2,RRIRKRPPRLPRPRPRPYIWPRP,-0.126
3,RRIRKRPPRLPRPRPRPSIMPRP,-0.195
4,RRIRKRPPRLPRPRPRPKMYPRP,-0.0411
5,RRIRIRPPRLPRPRPRPHQVPRP,-0.614
6,RRIRRRPPRLPRPRPRPQWHPRP,0.181
7,RRIRCRPPRLPRPRPRPFVPPRP,-0.139
8,RRIRIRPPRLPRPRPRPPHSPRP,-0.164
9,RRIRWRPPRLPRPRPRPLEFPRP,0.0696
10,RRIRWRPPRLPRPRPRPFACPRP,0.00273
11,RRIRTRPPRLPRPRPRPCIVPRP,-0.164
12,RRIRDRPPRLPRPRPRPDDAPRP,0.365
13,RRIRWRPPRLPRPRPRPEHIPRP,-0.14
14,RRIRTRPPRLPRPRPRPPEGPRP,0.308
15,RRIRYRPPRLPRPRPRPWMCPRP,-0.0907
16,RRIRPRPPRLPRPRPRPLAMPRP,0.193
17,RRIRIRPPRLPRPRPRPGDQPRP,-0.0693
18,RRIRRRPPRLPRPRPRPMENPRP,0.113
19,RRIRMRPPRLPRPRPRPVPDPRP,0.239
20,RRIRARPPRLPRPRPRPERWPRP,0.956
